For this series, the target named is Neuropeptide Y (NPY) (UniProt P01303 29-64). Briefly: electrochemical aptasensor (SWV, steady state); 1-1000 pg/mL; best NPY response of the three aptamers; aCSF pH 7.4 (composition by citation); SWV -0.4 to 0.0 V, 30 Hz; IPA 500 Hz in flow cell; assay temperature not stated. The settings on record: protein: commercial; label: 3' methylene blue; immobilized on Pt via 5' thiol.

B1: Aptamer 4.31 (ssDNA)
DNA: AGCAGCACAGAGGTCAGATGCAAACCACAGCCTGAGTGGTTAGCGTATGTCATTTACGGACCTATGCGTGCTACCGTGAA
modifications: 5' thiol C6 (disulfide reduced), 3' amino linker
Turning to B1, the binding result is reported as “binds”.

The values above are taken from paper PMC11127761, “Development of a Neuropeptide Y-Sensitive Implantable Microelectrode for Continuous Measurements”.
